The text below walks through data of patent publication US20160279196A1 (published 2016).

The target of experiment [1] is T1, SSX-3 peptide on HLA-A*02:01 (human).
T1 peptide: KVSEKIVYV
Put plainly: cytokine release.

The target in experiment [2] is T2, SSX-9 peptide on HLA-A*02:01 (human).
T2 peptide: KSSEKIIYV
The experiment is described as follows: cytokine release.

Experiment [3] addresses T3, SSX-7 peptide on HLA-A*02:01 (human).
T3 peptide: KSLEKISYV
Put plainly: cytokine release.

Experiment [4] addresses T4, SSX-5 peptide on HLA-A*02:01 (human).
T4 peptide: KASEKIIYV
Put plainly: cytokine release.

In experiment [5] the target is T5, SSX-10 peptide on HLA-A*02:01 (human).
T5 peptide: KASEKILYV
The experiment is described as follows: cytokine release.

Experiment [6] concerns the target T6, SSX-1; SSX-8 peptide on HLA-A*02:01 (human).
T6 peptide: KYSEKISYV
Put plainly: cytokine release.

In experiment [7] the target is T7, SSX-4 peptide on HLA-A*02:01 (human).
T7 peptide: KSSEKIVYV
The experiment is described as follows: cytokine release.

Experiment [8] deals with T8, SSX-6 peptide on HLA-A*02:01 (human).
T8 peptide: KFSEKISCV
The experiment is described as follows: cytokine release.

The target of experiment [9] is T9, SSX-2 peptide on HLA-A*02:01 (human).
T9 peptide: KASEKIFYV
The experiment is described as follows: multimer staining.

B1: SSX-2 TCR (TCR, V domains shown)
Valpha: AQKITQTQPGMFVQEKEAVTLDCTYDTSDPSYGLFWYKQPSSGEMIFLIYQGSYDQQNATEGRYSLNFQKARKSANLVISASQLGDSAMYFCAMTSGFGNEKLTFGTGTRLTIIP
Vbeta: DAMVIQNPRYQVTQFGKPVTLSCSQTLNHNVMYWYQQKSSQAPKLLFHYYDKDFNNEADTPDNFQSRRPNTSFCFLDIRSPGLGDAAMYLCATSRGQGGQPQHFGDGTRLSIL
For B1, the binding result in [1] is “recognises”; in experiment [2] it was “recognises”; in [3] it was “no recognition”; in experiment [4], “recognises”; in [5], “recognises”; in [6], “no recognition”. The values for the binding result in experiment [7], in experiment [8] and in experiment [9] were “recognises”, “no recognition” and “recognises”, respectively.
